# Results: IntAct's records for PubMed 21037566
# Target: lef_bacan lef (UniProt P15917)
row,Substance,effect of a mutation on the interaction
1,Protective antigen (Bacillus anthracis) (from UniProt P13423) L216A,disrupting interaction
2,Protective antigen (Bacillus anthracis) (from UniProt P13423) H240A,disrupting interaction
